Laboratory results: paper PMC10632352, “Nde1 promotes Lis1-mediated activation of dynein” (Nature Communications, 2023)

B8: human Lis1 (natural protein, UniProt P43034 1-410, looked up)
chain: MVLSQRQRDELNRAIADYLRSNGYEEAYSVFKKEAELDVNEELDKKYAGLLEKKWTSVIRLQKKVMELESKLNEAKEEFTSGGPLGQKRDPKEWIPRPPEKYALSGHRSPVTRVIFHPVFSVMVSASEDATIKVWDYETGDFERTLKGHTDSVQDISFDHSGKLLASCSADMTIKLWDFQGFECIRTMHGHDHNVSSVAIMPNGDHIVSASRDKTIKMWEVQTGYCVKTFTGHREWVRMVRPNQDGTLIASCSNDQTVRVWVVATKECKAELREHEHVVECISWAPESSYSSISEATGSETKKSGKPGPFLLSGSRDKTIKMWDVSTGMCLMTLVGHDNWVRGVLFHSGGKFILSCADDKTLRVWDYKNKRCMKTLNAHEHFVTSLDFHKTAPYVVTGSVDQTVKVWECR
modifications: benzylguanine dyes on the SNAP tag, by experiment: LD555, LD655, or Alexa488 and biotin
notes: Lis1 (noncatalytic beta subunit of PAF-AH1B), human; Homodimer by mass photometry; also called full-length Lis1; SNAP-Lis1; source: Sf9 (baculovirus, pOmniBac), purified (IgG Sepharose, TEV elution, Superdex 200 Increase SEC)

Tests used:
WT dynein-GFP (human) = WT dynein-GFP (human) (UniProt Q14204); assay: real-time TIRF of the initiation of DDR motility; microtubules decorated with WT dynein-GFP and Nde1-LD655 in the absence of Lis1; dynactin and BicDR1 (one of them LD555-labelled) flown in during imaging
[1] = biological target: dynein mutant unable to attain the phi conformation (mtDyn) (human) (UniProt Q14204); assay: single-molecule colocalization (TIRF); dynein (Alexa488 and biotin on its SNAP tag, 0.2 nM) immobilised on streptavidin / biotin-PEG glass; labelled prey in MB buffer (30 mM HEPES pH 7.0, 5 mM MgSO4, 1 mM EGTA, casein, pluronic, DTT, Taxol), 10 min, unbound prey not washed away; third proteins added
[2] = biological target: wild-type human dynein (cytoplasmic dynein-1 complex) (human) (UniProt Q14204); assay: as above
[3] = biological target: dynein mutant unable to attain the phi conformation (mtDyn) (human), Q14204
human Lis1 = biological target: B8; assay: cell-based or functional assay
Lis1^39–410 = biological target: T1, Lis1^39–410 (human, UniProt P43034 39-410); assay: cell-based or functional assay
T1 sequence (looked up): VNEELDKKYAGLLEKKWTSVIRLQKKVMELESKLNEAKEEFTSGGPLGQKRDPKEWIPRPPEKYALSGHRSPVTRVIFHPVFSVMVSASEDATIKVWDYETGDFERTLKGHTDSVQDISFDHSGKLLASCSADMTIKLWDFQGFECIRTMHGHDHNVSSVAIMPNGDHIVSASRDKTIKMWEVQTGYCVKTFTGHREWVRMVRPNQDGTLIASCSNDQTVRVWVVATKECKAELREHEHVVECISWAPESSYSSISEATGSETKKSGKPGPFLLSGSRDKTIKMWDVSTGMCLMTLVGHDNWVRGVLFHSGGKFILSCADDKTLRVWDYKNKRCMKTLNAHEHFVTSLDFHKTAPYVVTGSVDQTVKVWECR

[4] = biological target: dynein mutant unable to attain the phi conformation (mtDyn) (human) (UniProt Q14204)
[5] = biological target: wild-type human dynein (cytoplasmic dynein-1 complex) (human) (UniProt Q14204); assay: single-molecule colocalization (TIRF); dynein (Alexa488 and biotin on its SNAP tag, 0.2 nM) immobilised on streptavidin / biotin-PEG glass; labelled prey in MB buffer (30 mM HEPES pH 7.0, 5 mM MgSO4, 1 mM EGTA, casein, pluronic, DTT, Taxol), 10 min, unbound prey not washed away; third proteins added; remark: listed apart in the source
[6] = biological target: the molecule itself; assay: mass photometry; proteins diluted to 5–20 nM in 30 mM HEPES pH 7.4, 5 mM MgSO4, 1 mM EGTA, 10% glycerol; Refeyn TwoMP; profiles fitted to multiple Gaussians
[7] = biological target: dynein-dynactin-BicDR1 complex assembled with wild-type human dynein (wtDDR) (human | pig | mouse) (UniProt Q14204); assay: three-color TIRF comigration on microtubules; 100 nM BicDR1-mNG, 10 nM LD555-Lis1 and 10 nM LD655-Nde1 preincubated with the DDR components; processive runs on surface-immobilised microtubules
Sequence of dynein-dynactin-BicDR1 complex assembled with wild-type human dynein (wtDDR) (human | pig | mouse) (Q14204 whole entry, looked up, one chain of several): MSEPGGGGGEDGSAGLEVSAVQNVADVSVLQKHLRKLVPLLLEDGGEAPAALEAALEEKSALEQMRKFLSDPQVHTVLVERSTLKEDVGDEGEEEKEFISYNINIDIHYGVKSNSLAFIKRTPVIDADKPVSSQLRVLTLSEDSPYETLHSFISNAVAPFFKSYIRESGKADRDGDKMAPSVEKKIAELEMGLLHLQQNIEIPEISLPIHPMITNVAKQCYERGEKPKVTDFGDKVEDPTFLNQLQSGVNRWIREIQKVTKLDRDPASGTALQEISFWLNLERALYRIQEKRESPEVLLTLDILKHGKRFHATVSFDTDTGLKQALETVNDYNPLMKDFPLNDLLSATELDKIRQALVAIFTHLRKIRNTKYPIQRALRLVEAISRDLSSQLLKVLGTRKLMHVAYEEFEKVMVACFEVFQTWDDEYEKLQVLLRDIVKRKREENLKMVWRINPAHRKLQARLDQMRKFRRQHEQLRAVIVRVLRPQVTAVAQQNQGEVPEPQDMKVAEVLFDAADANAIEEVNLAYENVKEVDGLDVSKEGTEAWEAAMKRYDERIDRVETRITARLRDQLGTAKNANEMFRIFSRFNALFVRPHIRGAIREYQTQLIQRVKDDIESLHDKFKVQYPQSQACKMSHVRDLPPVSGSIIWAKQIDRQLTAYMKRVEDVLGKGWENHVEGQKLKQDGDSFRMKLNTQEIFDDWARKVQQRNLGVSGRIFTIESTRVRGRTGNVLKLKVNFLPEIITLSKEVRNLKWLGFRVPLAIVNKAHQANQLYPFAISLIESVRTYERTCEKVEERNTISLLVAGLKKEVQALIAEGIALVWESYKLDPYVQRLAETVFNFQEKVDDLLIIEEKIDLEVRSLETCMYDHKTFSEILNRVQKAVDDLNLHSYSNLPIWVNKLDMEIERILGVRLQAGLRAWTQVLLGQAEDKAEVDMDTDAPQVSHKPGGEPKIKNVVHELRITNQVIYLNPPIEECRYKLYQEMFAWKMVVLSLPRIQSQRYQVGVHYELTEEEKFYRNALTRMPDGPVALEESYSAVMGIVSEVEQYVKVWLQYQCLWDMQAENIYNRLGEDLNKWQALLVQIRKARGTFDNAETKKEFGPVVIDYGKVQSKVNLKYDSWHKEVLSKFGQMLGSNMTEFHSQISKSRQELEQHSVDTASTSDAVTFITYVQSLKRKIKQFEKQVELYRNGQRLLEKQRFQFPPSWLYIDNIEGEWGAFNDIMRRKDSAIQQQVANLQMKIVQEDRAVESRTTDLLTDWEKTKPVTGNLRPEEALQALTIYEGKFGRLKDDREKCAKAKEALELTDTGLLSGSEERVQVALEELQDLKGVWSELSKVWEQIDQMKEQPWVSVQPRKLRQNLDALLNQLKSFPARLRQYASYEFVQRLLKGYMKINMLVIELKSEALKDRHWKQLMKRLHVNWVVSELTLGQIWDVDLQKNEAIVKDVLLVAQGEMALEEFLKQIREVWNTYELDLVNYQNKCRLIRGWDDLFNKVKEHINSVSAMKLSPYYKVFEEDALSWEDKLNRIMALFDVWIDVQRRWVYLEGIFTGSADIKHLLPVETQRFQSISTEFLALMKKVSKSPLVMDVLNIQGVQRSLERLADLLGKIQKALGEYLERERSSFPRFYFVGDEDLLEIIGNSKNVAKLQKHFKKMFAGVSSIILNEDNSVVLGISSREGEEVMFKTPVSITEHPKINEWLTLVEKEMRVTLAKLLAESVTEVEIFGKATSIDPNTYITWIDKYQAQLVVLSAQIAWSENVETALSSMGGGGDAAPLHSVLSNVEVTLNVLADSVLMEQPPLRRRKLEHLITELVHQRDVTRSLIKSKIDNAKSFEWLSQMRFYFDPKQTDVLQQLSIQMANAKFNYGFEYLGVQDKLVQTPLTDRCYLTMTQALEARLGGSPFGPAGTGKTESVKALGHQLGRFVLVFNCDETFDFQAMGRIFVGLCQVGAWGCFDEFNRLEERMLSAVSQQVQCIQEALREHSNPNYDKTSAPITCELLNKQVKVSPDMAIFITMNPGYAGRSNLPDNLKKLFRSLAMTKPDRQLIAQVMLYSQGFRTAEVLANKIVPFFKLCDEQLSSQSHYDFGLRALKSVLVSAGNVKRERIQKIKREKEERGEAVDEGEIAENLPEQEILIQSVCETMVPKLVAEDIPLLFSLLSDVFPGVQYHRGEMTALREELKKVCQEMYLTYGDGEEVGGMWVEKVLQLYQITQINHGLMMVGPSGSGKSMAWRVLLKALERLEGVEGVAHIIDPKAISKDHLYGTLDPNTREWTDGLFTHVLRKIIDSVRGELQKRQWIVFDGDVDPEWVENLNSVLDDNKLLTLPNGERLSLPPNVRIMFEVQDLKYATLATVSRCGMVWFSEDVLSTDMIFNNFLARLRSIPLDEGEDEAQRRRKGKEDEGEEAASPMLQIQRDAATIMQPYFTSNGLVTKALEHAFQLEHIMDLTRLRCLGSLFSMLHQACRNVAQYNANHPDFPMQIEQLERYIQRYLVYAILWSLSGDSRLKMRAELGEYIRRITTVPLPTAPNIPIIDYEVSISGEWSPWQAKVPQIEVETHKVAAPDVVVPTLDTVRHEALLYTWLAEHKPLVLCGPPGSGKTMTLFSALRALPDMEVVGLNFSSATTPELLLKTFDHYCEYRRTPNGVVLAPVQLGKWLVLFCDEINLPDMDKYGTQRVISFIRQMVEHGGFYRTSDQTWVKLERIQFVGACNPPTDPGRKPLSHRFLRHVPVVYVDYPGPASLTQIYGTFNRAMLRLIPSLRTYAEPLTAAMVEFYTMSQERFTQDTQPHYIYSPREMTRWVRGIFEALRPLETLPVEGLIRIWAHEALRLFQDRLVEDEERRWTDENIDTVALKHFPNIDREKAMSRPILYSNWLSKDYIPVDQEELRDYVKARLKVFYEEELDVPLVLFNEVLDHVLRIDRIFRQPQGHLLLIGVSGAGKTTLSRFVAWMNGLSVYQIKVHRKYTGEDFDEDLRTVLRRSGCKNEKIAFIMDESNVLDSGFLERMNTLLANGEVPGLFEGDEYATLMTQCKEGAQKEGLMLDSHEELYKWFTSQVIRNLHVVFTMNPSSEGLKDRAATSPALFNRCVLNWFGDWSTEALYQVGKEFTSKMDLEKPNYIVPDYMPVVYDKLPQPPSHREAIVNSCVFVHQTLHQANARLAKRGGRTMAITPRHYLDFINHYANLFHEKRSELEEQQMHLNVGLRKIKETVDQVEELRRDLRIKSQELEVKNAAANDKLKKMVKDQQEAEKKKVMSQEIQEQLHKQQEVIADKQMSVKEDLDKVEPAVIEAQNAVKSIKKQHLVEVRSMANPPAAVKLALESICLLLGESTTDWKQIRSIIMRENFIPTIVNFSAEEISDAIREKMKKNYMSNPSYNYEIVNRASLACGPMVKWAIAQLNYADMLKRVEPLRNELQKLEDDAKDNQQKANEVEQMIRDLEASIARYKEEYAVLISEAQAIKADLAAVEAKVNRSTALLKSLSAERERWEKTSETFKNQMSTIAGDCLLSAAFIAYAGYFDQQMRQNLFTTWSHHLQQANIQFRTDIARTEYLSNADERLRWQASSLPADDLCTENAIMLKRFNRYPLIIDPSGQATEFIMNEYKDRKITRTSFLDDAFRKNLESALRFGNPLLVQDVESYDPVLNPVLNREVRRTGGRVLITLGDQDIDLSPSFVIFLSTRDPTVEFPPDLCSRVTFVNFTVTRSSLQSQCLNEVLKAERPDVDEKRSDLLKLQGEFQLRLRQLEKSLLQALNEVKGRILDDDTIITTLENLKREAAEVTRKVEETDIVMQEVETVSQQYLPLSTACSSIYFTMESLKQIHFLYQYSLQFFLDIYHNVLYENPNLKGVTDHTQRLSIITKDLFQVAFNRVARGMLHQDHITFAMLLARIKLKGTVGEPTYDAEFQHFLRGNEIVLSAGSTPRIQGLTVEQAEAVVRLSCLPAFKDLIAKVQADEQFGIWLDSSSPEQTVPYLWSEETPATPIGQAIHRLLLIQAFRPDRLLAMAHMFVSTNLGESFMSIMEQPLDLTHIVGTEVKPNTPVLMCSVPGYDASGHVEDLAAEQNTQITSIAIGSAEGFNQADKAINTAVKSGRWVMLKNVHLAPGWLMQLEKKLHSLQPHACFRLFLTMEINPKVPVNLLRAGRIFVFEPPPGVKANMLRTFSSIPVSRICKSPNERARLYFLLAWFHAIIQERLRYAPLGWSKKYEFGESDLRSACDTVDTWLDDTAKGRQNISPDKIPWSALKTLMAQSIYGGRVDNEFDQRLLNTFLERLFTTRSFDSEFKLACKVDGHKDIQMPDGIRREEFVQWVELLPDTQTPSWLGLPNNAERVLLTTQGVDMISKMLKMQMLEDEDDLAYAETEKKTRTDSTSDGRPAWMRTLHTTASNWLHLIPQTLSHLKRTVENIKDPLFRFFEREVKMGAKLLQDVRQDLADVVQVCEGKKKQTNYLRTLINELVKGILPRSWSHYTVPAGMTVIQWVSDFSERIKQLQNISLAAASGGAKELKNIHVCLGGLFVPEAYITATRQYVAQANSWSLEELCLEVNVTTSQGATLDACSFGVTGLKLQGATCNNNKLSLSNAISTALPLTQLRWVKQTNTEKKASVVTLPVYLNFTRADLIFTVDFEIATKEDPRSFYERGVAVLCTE

## pig brain dynactin (from UniProt A0A287B8J2 1-1281) (complex)
WT dynein-GFP (human)
  percent of dynein-colocalized Nde1 spots released: 96%
[1]
  percent reduction of Nde1 colocalization to dynein (150 nM dynactin, 25 nM Nde1): 75%
[2]
  percent reduction of Nde1 colocalization to dynein (150 nM dynactin, 25 nM Nde1): 37%

B1: Nde1^E118A/R129A (Lis1 binding mutant of Nde1), Q9NXR1 1-335 (natural protein)
chain: MEDSGKTFSSEEEEANYWKDLAMTYKQRAENTQEELREFQEGSREYEAELETQLQQIETRNRDLLSENNRLRMELETIKEKFEVQHSEGYRQISALEDDLAQTKAIKDQLQKYIRELAQANDDLERAKAATIMSLEDFEQRLNQAIERNAFLESELDEKENLLESVQRLKDEARDLRQELAVQQKQEKPRTPMPSSVEAERTDTAVQATGSVPSTPIAHRGPSSSLNTPGSFRRGLDDSTGGTPLTPAARISALNIVGDLLRKVGALESKLASCRNLVYDQSPNRTGGPASGRSSKNRDGGERRPSSTSVPLGDKGLDTSCRWLSKSTTRSSSSC
modifications: here or on the partner: a fluorescent dye in the colocalization assays; LD655, or Alexa488 and biotin, where labelled
[3]
  decrease of the frequency of mtDDR runs with 250 nM Nde1 mutant in the absence of Lis1: 50%

B2: human Nde1 (natural protein, UniProt Q9NXR1 1-335, looked up)
chain: MEDSGKTFSSEEEEANYWKDLAMTYKQRAENTQEELREFQEGSREYEAELETQLQQIETRNRDLLSENNRLRMELETIKEKFEVQHSEGYRQISALEDDLAQTKAIKDQLQKYIRELEQANDDLERAKRATIMSLEDFEQRLNQAIERNAFLESELDEKENLLESVQRLKDEARDLRQELAVQQKQEKPRTPMPSSVEAERTDTAVQATGSVPSTPIAHRGPSSSLNTPGSFRRGLDDSTGGTPLTPAARISALNIVGDLLRKVGALESKLASCRNLVYDQSPNRTGGPASGRSSKNRDGGERRPSSTSVPLGDKGLDTSCRWLSKSTTRSSSSC
modifications: LD655 or LD555 dye where labelled
notes: Nde1, human; Labelled through a SNAP or a ybbR tag; also called full-length Nde1; WT Nde1; source: Sf9 (baculovirus, pOmniBac), purified (IgG Sepharose, TEV elution, Superdex 200 Increase SEC)
Human Lis1
  wtDDR run frequency on addition of 10 nM Nde1 with full-length Lis1: > 10 fold
Lis1^39–410
  wtDDR run frequency on addition of 10 nM Nde1 with 100 nM Lis1^39–410: 3.2 fold
[4]
  decrease of the frequency of mtDDR runs with 250 nM Nde1 in the absence of Lis1: 50%
[5]
  average bound time: 21 s
  average bound time with Lis1 added: 42 s
[6]
  stoichiometry N: 2

B3: Nde1^E118K/R129E (Lis1 binding mutant of Nde1), Q9NXR1 1-335 (natural protein)
chain: MEDSGKTFSSEEEEANYWKDLAMTYKQRAENTQEELREFQEGSREYEAELETQLQQIETRNRDLLSENNRLRMELETIKEKFEVQHSEGYRQISALEDDLAQTKAIKDQLQKYIRELKQANDDLERAKEATIMSLEDFEQRLNQAIERNAFLESELDEKENLLESVQRLKDEARDLRQELAVQQKQEKPRTPMPSSVEAERTDTAVQATGSVPSTPIAHRGPSSSLNTPGSFRRGLDDSTGGTPLTPAARISALNIVGDLLRKVGALESKLASCRNLVYDQSPNRTGGPASGRSSKNRDGGERRPSSTSVPLGDKGLDTSCRWLSKSTTRSSSSC
modifications: here or on the partner: a fluorescent dye in the colocalization assays; LD655, or Alexa488 and biotin, where labelled
[3]
  decrease of the frequency of mtDDR runs with 250 nM Nde1 mutant in the absence of Lis1: 50%

B4: Nde1^E118K/R129E (Lis1 binding mutant of Nde1) (natural protein, human, UniProt Q9NXR1 1-335, looked up)
chain: MEDSGKTFSSEEEEANYWKDLAMTYKQRAENTQEELREFQEGSREYEAELETQLQQIETRNRDLLSENNRLRMELETIKEKFEVQHSEGYRQISALEDDLAQTKAIKDQLQKYIRELKQANDDLERAKEATIMSLEDFEQRLNQAIERNAFLESELDEKENLLESVQRLKDEARDLRQELAVQQKQEKPRTPMPSSVEAERTDTAVQATGSVPSTPIAHRGPSSSLNTPGSFRRGLDDSTGGTPLTPAARISALNIVGDLLRKVGALESKLASCRNLVYDQSPNRTGGPASGRSSKNRDGGERRPSSTSVPLGDKGLDTSCRWLSKSTTRSSSSC
modifications: a fluorescent dye in the colocalization assays
notes: Nde1, human, with E118K and R129E; Probably in full-length Nde1; source: Sf9 (baculovirus, pOmniBac), purified (IgG Sepharose, TEV elution, SEC)
[6]
  stoichiometry N: 2

B5: Nde1^E47A (DIC binding mutant of Nde1) (natural protein, human, UniProt Q9NXR1 1-335, looked up)
chain: MEDSGKTFSSEEEEANYWKDLAMTYKQRAENTQEELREFQEGSREYAAELETQLQQIETRNRDLLSENNRLRMELETIKEKFEVQHSEGYRQISALEDDLAQTKAIKDQLQKYIRELEQANDDLERAKRATIMSLEDFEQRLNQAIERNAFLESELDEKENLLESVQRLKDEARDLRQELAVQQKQEKPRTPMPSSVEAERTDTAVQATGSVPSTPIAHRGPSSSLNTPGSFRRGLDDSTGGTPLTPAARISALNIVGDLLRKVGALESKLASCRNLVYDQSPNRTGGPASGRSSKNRDGGERRPSSTSVPLGDKGLDTSCRWLSKSTTRSSSSC
modifications: a fluorescent dye in the colocalization assays
notes: Nde1, human, with E47A; Probably in full-length Nde1; source: Sf9 (baculovirus, pOmniBac), purified (IgG Sepharose, TEV elution, SEC)
[6]
  stoichiometry N: 2

B6: Nde1^E118A/R129A (Lis1 binding mutant of Nde1) (natural protein, human, UniProt Q9NXR1 1-335, looked up)
chain: MEDSGKTFSSEEEEANYWKDLAMTYKQRAENTQEELREFQEGSREYEAELETQLQQIETRNRDLLSENNRLRMELETIKEKFEVQHSEGYRQISALEDDLAQTKAIKDQLQKYIRELAQANDDLERAKAATIMSLEDFEQRLNQAIERNAFLESELDEKENLLESVQRLKDEARDLRQELAVQQKQEKPRTPMPSSVEAERTDTAVQATGSVPSTPIAHRGPSSSLNTPGSFRRGLDDSTGGTPLTPAARISALNIVGDLLRKVGALESKLASCRNLVYDQSPNRTGGPASGRSSKNRDGGERRPSSTSVPLGDKGLDTSCRWLSKSTTRSSSSC
modifications: a fluorescent dye in the colocalization assays
notes: Nde1, human, with E118A and R129A; Probably in full-length Nde1; source: Sf9 (baculovirus, pOmniBac), purified (IgG Sepharose, TEV elution, SEC)
[6]
  stoichiometry N: 2

B7: Nde1^E47K (DIC binding mutant of Nde1) (natural protein, human, UniProt Q9NXR1 1-335, looked up)
chain: MEDSGKTFSSEEEEANYWKDLAMTYKQRAENTQEELREFQEGSREYKAELETQLQQIETRNRDLLSENNRLRMELETIKEKFEVQHSEGYRQISALEDDLAQTKAIKDQLQKYIRELEQANDDLERAKRATIMSLEDFEQRLNQAIERNAFLESELDEKENLLESVQRLKDEARDLRQELAVQQKQEKPRTPMPSSVEAERTDTAVQATGSVPSTPIAHRGPSSSLNTPGSFRRGLDDSTGGTPLTPAARISALNIVGDLLRKVGALESKLASCRNLVYDQSPNRTGGPASGRSSKNRDGGERRPSSTSVPLGDKGLDTSCRWLSKSTTRSSSSC
modifications: a fluorescent dye in the colocalization assays
notes: Nde1, human, with E47K; Probably in full-length Nde1; source: Sf9 (baculovirus, pOmniBac), purified (IgG Sepharose, TEV elution, SEC)
[6]
  stoichiometry N: 2

## B8
[5]
  average bound time: 12 s
  average bound time with Nde1 added: 35 s
[6]
  stoichiometry N: 2
[7]
  percent of DDR complexes that co-migrate with Lis1: 70%

B9: mtLis1 (dynein-binding mutant of Lis1, R316A and W340A) (natural protein, human, UniProt P43034 1-410, looked up)
chain: MVLSQRQRDELNRAIADYLRSNGYEEAYSVFKKEAELDVNEELDKKYAGLLEKKWTSVIRLQKKVMELESKLNEAKEEFTSGGPLGQKRDPKEWIPRPPEKYALSGHRSPVTRVIFHPVFSVMVSASEDATIKVWDYETGDFERTLKGHTDSVQDISFDHSGKLLASCSADMTIKLWDFQGFECIRTMHGHDHNVSSVAIMPNGDHIVSASRDKTIKMWEVQTGYCVKTFTGHREWVRMVRPNQDGTLIASCSNDQTVRVWVVATKECKAELREHEHVVECISWAPESSYSSISEATGSETKKSGKPGPFLLSGSADKTIKMWDVSTGMCLMTLVGHDNAVRGVLFHSGGKFILSCADDKTLRVWDYKNKRCMKTLNAHEHFVTSLDFHKTAPYVVTGSVDQTVKVWECR
modifications: LD555, or Alexa488 and biotin, on the SNAP tag in the colocalization assays
notes: Lis1, human, with R316A and W340A on the beta-propeller domain; forms a dimer like Lis1; source: Sf9 (baculovirus, pOmniBac), purified (IgG Sepharose, TEV elution, SEC)
[6]
  stoichiometry N: 2

B10: Nde1^1–190 (N-terminus of human Nde1) (domain or fragment, UniProt Q9NXR1 1-190, looked up)
chain: MEDSGKTFSSEEEEANYWKDLAMTYKQRAENTQEELREFQEGSREYEAELETQLQQIETRNRDLLSENNRLRMELETIKEKFEVQHSEGYRQISALEDDLAQTKAIKDQLQKYIRELEQANDDLERAKRATIMSLEDFEQRLNQAIERNAFLESELDEKENLLESVQRLKDEARDLRQELAVQQKQEKPR
modifications: LD555 dye in the analytical SEC
notes: Nde1, human, N-terminal coiled-coil, residues 1-190 (C-terminus truncated); also called Nde1^1–190-LD555; source: Sf9 (baculovirus, pOmniBac), purified (IgG Sepharose, TEV elution, Superdex 200 Increase SEC)
[6]
  stoichiometry N: 2
